{
  "source": "patent US20090070901",
  "target": "des(methyl) spinach Rubisco (ribulose-1,5-bisphosphate carboxylase-oxygenase holoenzyme) (UniProt P00875)",
  "data": [
    {"substance": "wild-type pea Rubisco large subunit epsilon-N-methyltransferase (pea Rubisco LSMT)", "values": [
      {"measurement": "carboxylase activity at saturating and low CO2", "value": "showed no difference in activity between native Rubisco and Rubisco with bound pea Rubisco LSMT alone"}
    ]}
  ]
}
